Drawing on US20220041721A1 (WUHAN YZY BIOPHARMA, published 2022), this text covers EC50 for six molecules.

One experiment has as its target T1, monkey CD3 (monkey).
T1 construct: whole, on cells; also called CD3 on monkey CD3 positive T cells
Put plainly: flow cytometry on monkey CD3 positive T cells.

A further experiment addresses T2, human CD3 (human, UniProt P07766 23-207).
T2 construct: whole, on cells; Assays used CD3 positive T cells (or CIK cells) from human blood; also called Human CD3ϵ; CD3 on human CD3 positive T cells
Put plainly: flow cytometry on human CD3 positive T cells. For orientation: Flow cytometry measures light scatter and fluorescence of single cells or particles in a stream.

B1: Y150-F8-1 (bispecific antibody, human IgG1, kappa)
scFv: EVQLVESGGGLVQPKGSLKLSCAASGFTFNTYAMNWVRQAPGKGLEWVARIRSKYNNYATYYADSVKDRFTISRDDSQSILYLQMNNLKTEDTAMYYCVRHGNFGNSYVSWFAYWGQGTLVTVSSGGGGSGGGGSGGGGSQAVVTQESALTTSPGETVTLTCRSSTGAVTTSNYANWVQEKPDHLFTGLIGGTNKRAPGVPARFSGSLIGDKAALTITGAQTEDEAIYFCALWYSNLWVFGGGTKLTVLGDGDGSDKTHTCPPCPAPEFEGGPSVFLFPPKPKDTLMISRTPEVTCVVVDVSHEDPEVKFNWYVDGVEVHNAKTKPREEQYNSTYRVVSVLTVLHQDWLNGKEYKCKVSNKALPASIEKTISKAKGQPREPQVCTLPPSRDELTKNQVSLSCAVKGFYPSDIAVEWESNGQPENNYKTTPPVLDSDGSFFLVSKLTVDKSRWQQGNVFSCSVMHEALHNHYTQKSLSLSPGK
heavy: EVQLLESGGGLVQPGGSLRLSCAVSGFTFNSFAMSWVRQAPGKGLEWVSAISGSGGGTYYADSVKGRFTISRDNSKNTLYLQMNSLRAEDTAVYFCAKDKILWFGEPVFDYWGQGTLVTVSSASTKGPSVFPLAPSSKSTSGGTAALGCLVKDYFPEPVTVSWNSGALTSGVHTFPAVLQSSGLYSLSSVVTVPSSSLGTQTYICNVNHKPSNTKVDKKVEPKSCDKTHTCPPCPAPEFEGGPSVFLFPPKPKDTLMISRTPEVTCVVVDVSHEDPEVKFNWYVDGVEVHNAKTKPREEQYNSTYRVVSVLTVLHQDWLNGKEYKCKVSNKALPASIEKTISKAKGQPREPQVYTLPPCRDELTKNQVSLWCLVKGFYPSDIAVEWESNGQPENNYKTTPPVLDSDGSFFLYSKLTVDKSRWQQGNVFSCSVMHEALHNHYTQKSLSLSPGK
light: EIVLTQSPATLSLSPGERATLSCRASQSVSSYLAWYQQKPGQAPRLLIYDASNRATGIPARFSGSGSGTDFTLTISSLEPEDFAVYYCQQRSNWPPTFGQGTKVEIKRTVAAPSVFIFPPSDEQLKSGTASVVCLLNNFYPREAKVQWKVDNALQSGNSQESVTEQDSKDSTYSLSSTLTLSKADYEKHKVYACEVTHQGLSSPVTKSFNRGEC
notes: Comparative: anti-CD38 (Dara) Fab arm and anti-CD3 scFv (SP34)-Fc fusion peptide, CH2 FES
As for B1, in the experiment with monkey CD3, the EC50 stood at 152 nM.

B2: Y150-F8-2 (bispecific antibody, human IgG1, kappa, N297Q)
scFv: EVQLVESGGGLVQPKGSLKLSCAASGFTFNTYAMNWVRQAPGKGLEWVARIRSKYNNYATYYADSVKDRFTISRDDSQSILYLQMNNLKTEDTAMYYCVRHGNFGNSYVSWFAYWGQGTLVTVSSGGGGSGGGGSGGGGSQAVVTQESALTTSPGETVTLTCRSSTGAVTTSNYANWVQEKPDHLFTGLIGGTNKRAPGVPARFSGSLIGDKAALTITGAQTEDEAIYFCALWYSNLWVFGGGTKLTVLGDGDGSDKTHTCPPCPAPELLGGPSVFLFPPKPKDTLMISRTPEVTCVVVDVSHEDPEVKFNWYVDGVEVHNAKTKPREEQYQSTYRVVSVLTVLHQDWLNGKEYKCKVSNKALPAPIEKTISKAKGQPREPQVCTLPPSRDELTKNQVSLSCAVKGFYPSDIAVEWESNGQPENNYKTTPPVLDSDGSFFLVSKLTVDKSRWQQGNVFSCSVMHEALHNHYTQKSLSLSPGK
heavy: EVQLLESGGGLVQPGGSLRLSCAVSGFTFNSFAMSWVRQAPGKGLEWVSAISGSGGGTYYADSVKGRFTISRDNSKNTLYLQMNSLRAEDTAVYFCAKDKILWFGEPVFDYWGQGTLVTVSSASTKGPSVFPLAPSSKSTSGGTAALGCLVKDYFPEPVTVSWNSGALTSGVHTFPAVLQSSGLYSLSSVVTVPSSSLGTQTYICNVNHKPSNTKVDKKVEPKSCDKTHTCPPCPAPELLGGPSVFLFPPKPKDTLMISRTPEVTCVVVDVSHEDPEVKFNWYVDGVEVHNAKTKPREEQYQSTYRVVSVLTVLHQDWLNGKEYKCKVSNKALPAPIEKTISKAKGQPREPQVYTLPPCRDELTKNQVSLWCLVKGFYPSDIAVEWESNGQPENNYKTTPPVLDSDGSFFLYSKLTVDKSRWQQGNVFSCSVMHEALHNHYTQKSLSLSPGK
light: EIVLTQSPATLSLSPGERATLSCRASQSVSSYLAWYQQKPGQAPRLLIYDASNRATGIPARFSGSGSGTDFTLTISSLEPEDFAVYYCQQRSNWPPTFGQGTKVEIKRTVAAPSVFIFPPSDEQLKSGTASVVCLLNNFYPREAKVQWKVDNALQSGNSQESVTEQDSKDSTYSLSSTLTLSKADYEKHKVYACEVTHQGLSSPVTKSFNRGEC
notes: Comparative: anti-CD38 (Dara) Fab arm and anti-CD3 scFv (SP34)-Fc fusion peptide, CH2 N297Q
B2 came in with an EC50 with monkey CD3 of 102 nM.

B3: IC-6 (bispecific antibody, human IgG1, kappa)
scFv: EVQLVESGGGLVQPGGSLRLSCAASGFTFSTYAMNWVRQAPGKGLEWVARIRSKYNNYATYYADSVKDRFTISRDDSKNTLYLQMNSLRAEDTAVYYCARHGNFGNSYVSWFAYWGQGTMVTVSSGGGGSGGGGSGGGGSQAVVTQEPSLTVSPGGTVTLTCGSSTGAVTTSNYANWVQQKPGQAPRGLIGGTNKRAPGVPARFSGSLLGGKAALTLSGAQPEDEAEYYCALWYSNLWVFGGGTKLEIKGGGGSDKTHTCPPCPAPEFEGGPSVFLFPPKPKDTLMISRTPEVTCVVVDVSHEDPEVKFNWYVDGVEVHNAKTKPREEQYNSTYRVVSVLTVLHQDWLNGKEYKCKVSNKALPASIEKTISKAKGQPREPQVCTLPPSRDELTKNQVSLSCAVKGFYPSDIAVEWESNGQPENNYKTTPPVLDSDGSFFLVSKLTVDKSRWQQGNVFSCSVMHEALHNHYTQKSLSLSPGK
heavy: EVKLDETGGGLVQPGRPMKLSCVASGFTFSDYWMNWVRQSPEKGLEWVAQIRNKPYNYETYYSDSVKGRFTISRDDSKSSVYLQMNNLRVEDMGIYYCTGSYYGMDYWGQGTSVTVSSASTKGPSVFPLAPSSKSTSGGTAALGCLVKDYFPEPVTVSWNSGALTSGVHTFPAVLQSSGLYSLSSVVTVPSSSLGTQTYICNVNHKPSNTKVDKKVEPKSCDKTHTCPPCPAPEFEGGPSVFLFPPKPKDTLMISRTPEVTCVVVDVSHEDPEVKFNWYVDGVEVHNAKTKPREEQYNSTYRVVSVLTVLHQDWLNGKEYKCKVSNKALPASIEKTISKAKGQPREPQVYTLPPCRDELTKNQVSLWCLVKGFYPSDIAVEWESNGQPENNYKTTPPVLDSDGSFFLYSKLTVDKSRWQQGNVFSCSVMHEALHNHYTQKSLSLSPGK
light: DVVMTQTPLSLPVSLGDQASISCRSSQSLVHSNGNTYLRWYLQKPGQSPKVLIYKVSNRFSGVPDRFSGSGSGTDFTLKISRVEAEDLGVYFCSQSTHVPWTFGGGTKLEIKRTVAAPSVFIFPPSDEQLKSGTASVVCLLNNFYPREAKVQWKVDNALQSGNSQESVTEQDSKDSTYSLSSTLTLSKADYEKHKVYACEVTHQGLSSPVTKSFNRGEC
notes: Comparative: 4420 Fab arm and anti-CD3 scFv (CD3 antibody 1 VH, CD3 antibody 2 VL)-Fc fusion peptide
Regarding B3, the EC50 was found to be 118 nM with human CD3 and 154 nM with monkey CD3.

B4: IC-5 (bispecific antibody, human IgG1, kappa)
scFv: EVQLVESGGGLVQPGGSLRLSCAASGFTFNTYAMNWVRQAPGKGLEWVGRIRSKYNNYATYYADSVKGRFTISRDDSKNTLYLQMNSLRAEDTAVYYCARHGNFGNSYVSWFAYWGQGTLVTVSSGGGGSGGGGSGGGGSQAVVTQEPSLTVSPGGTVTLTCGSSTGAVTTSNYANWVQQKPGQAPRGLIGGTNKRAPGVPARFSGSLLGGKAALTLSGAQPEDEAEYYCALWYSNLWVFGGGTKLEIKGGGGSDKTHTCPPCPAPEFEGGPSVFLFPPKPKDTLMISRTPEVTCVVVDVSHEDPEVKFNWYVDGVEVHNAKTKPREEQYNSTYRVVSVLTVLHQDWLNGKEYKCKVSNKALPASIEKTISKAKGQPREPQVCTLPPSRDELTKNQVSLSCAVKGFYPSDIAVEWESNGQPENNYKTTPPVLDSDGSFFLVSKLTVDKSRWQQGNVFSCSVMHEALHNHYTQKSLSLSPGK
heavy: EVKLDETGGGLVQPGRPMKLSCVASGFTFSDYWMNWVRQSPEKGLEWVAQIRNKPYNYETYYSDSVKGRFTISRDDSKSSVYLQMNNLRVEDMGIYYCTGSYYGMDYWGQGTSVTVSSASTKGPSVFPLAPSSKSTSGGTAALGCLVKDYFPEPVTVSWNSGALTSGVHTFPAVLQSSGLYSLSSVVTVPSSSLGTQTYICNVNHKPSNTKVDKKVEPKSCDKTHTCPPCPAPEFEGGPSVFLFPPKPKDTLMISRTPEVTCVVVDVSHEDPEVKFNWYVDGVEVHNAKTKPREEQYNSTYRVVSVLTVLHQDWLNGKEYKCKVSNKALPASIEKTISKAKGQPREPQVYTLPPCRDELTKNQVSLWCLVKGFYPSDIAVEWESNGQPENNYKTTPPVLDSDGSFFLYSKLTVDKSRWQQGNVFSCSVMHEALHNHYTQKSLSLSPGK
light: DVVMTQTPLSLPVSLGDQASISCRSSQSLVHSNGNTYLRWYLQKPGQSPKVLIYKVSNRFSGVPDRFSGSGSGTDFTLKISRVEAEDLGVYFCSQSTHVPWTFGGGTKLEIKRTVAAPSVFIFPPSDEQLKSGTASVVCLLNNFYPREAKVQWKVDNALQSGNSQESVTEQDSKDSTYSLSSTLTLSKADYEKHKVYACEVTHQGLSSPVTKSFNRGEC
notes: Comparative: 4420 Fab arm and anti-CD3 scFv (CD3 antibody 2 VH/VL)-Fc fusion peptide
In the case of B4, the EC50 with human CD3 stood at 122 nM; with monkey CD3, 161 nM.

B5: MS-hCD3-IC16 (bispecific antibody, human IgG1, kappa)
scFv: QVQLVESGGGVVQPGRSLRLSCAASGFTFSTYAMNWVRQAPGKGLEWVARIRSKYNNYATYYADSVKDRFTISRDDSKNTLYLQMNSLRAEDTAVYYCARHGNFGNSYVSWFAYWGQGTLVTVSSGGGGSGGGGSGGGGSQTVVTQEPSLTVSPGGTVTLTCRSSTGAVTTSNYANWVQQKPGQAPRGLIGGTNKRAPGVPARFSGSLLGGKAALTLSGVQPEDEAEYYCALWYSNLWVFGGGTKVEIKGGGGSDKTHTCPPCPAPEFEGGPSVFLFPPKPKDTLMISRTPEVTCVVVDVSHEDPEVKFNWYVDGVEVHNAKTKPREEQYNSTYRVVSVLTVLHQDWLNGKEYKCKVSNKALPASIEKTISKAKGQPREPQVCTLPPSRDELTKNQVSLSCAVKGFYPSDIAVEWESNGQPENNYKTTPPVLDSDGSFFLVSKLTVDKSRWQQGNVFSCSVMHEALHNHYTQKSLSLSPGK
heavy: EVKLDETGGGLVQPGRPMKLSCVASGFTFSDYWMNWVRQSPEKGLEWVAQIRNKPYNYETYYSDSVKGRFTISRDDSKSSVYLQMNNLRVEDMGIYYCTGSYYGMDYWGQGTSVTVSSASTKGPSVFPLAPSSKSTSGGTAALGCLVKDYFPEPVTVSWNSGALTSGVHTFPAVLQSSGLYSLSSVVTVPSSSLGTQTYICNVNHKPSNTKVDKKVEPKSCDKTHTCPPCPAPEFEGGPSVFLFPPKPKDTLMISRTPEVTCVVVDVSHEDPEVKFNWYVDGVEVHNAKTKPREEQYNSTYRVVSVLTVLHQDWLNGKEYKCKVSNKALPASIEKTISKAKGQPREPQVYTLPPCRDELTKNQVSLWCLVKGFYPSDIAVEWESNGQPENNYKTTPPVLDSDGSFFLYSKLTVDKSRWQQGNVFSCSVMHEALHNHYTQKSLSLSPGK
light: DVVMTQTPLSLPVSLGDQASISCRSSQSLVHSNGNTYLRWYLQKPGQSPKVLIYKVSNRFSGVPDRFSGSGSGTDFTLKISRVEAEDLGVYFCSQSTHVPWTFGGGTKLEIKRTVAAPSVFIFPPSDEQLKSGTASVVCLLNNFYPREAKVQWKVDNALQSGNSQESVTEQDSKDSTYSLSSTLTLSKADYEKHKVYACEVTHQGLSSPVTKSFNRGEC
notes: 4420 Fab arm and anti-CD3 scFv (VH2a/VL5)-Fc fusion peptide, CH2 FES
As to B5, the EC50 with human CD3 was 170 nM; in the experiment with monkey CD3, 295 nM.

B6: IC-4 (bispecific antibody, human IgG1, kappa)
scFv: EVQLVESGGGLVQPGGSLRLSCAASGFTFSTYAMNWVRQAPGKGLEWVARIRSKYNNYATYYADSVKDRFTISRDDSKNTLYLQMNSLRAEDTAVYYCARHGNFGNSYVSWFAYWGQGTMVTVSSGGGGSGGGGSGGGGSQAVVTQEPSLTVSPGGTVTLTCRSSTGAVTTSNYANWVQQKPGQAPRGLIGGTNKRAPGTPARFSGSLLGGKAALTLSGVQPEDEAEYYCALWYSNLWVFGGGTKLTVLGGGGSDKTHTCPPCPAPEFEGGPSVFLFPPKPKDTLMISRTPEVTCVVVDVSHEDPEVKFNWYVDGVEVHNAKTKPREEQYNSTYRVVSVLTVLHQDWLNGKEYKCKVSNKALPASIEKTISKAKGQPREPQVCTLPPSRDELTKNQVSLSCAVKGFYPSDIAVEWESNGQPENNYKTTPPVLDSDGSFFLVSKLTVDKSRWQQGNVFSCSVMHEALHNHYTQKSLSLSPGK
heavy: EVKLDETGGGLVQPGRPMKLSCVASGFTFSDYWMNWVRQSPEKGLEWVAQIRNKPYNYETYYSDSVKGRFTISRDDSKSSVYLQMNNLRVEDMGIYYCTGSYYGMDYWGQGTSVTVSSASTKGPSVFPLAPSSKSTSGGTAALGCLVKDYFPEPVTVSWNSGALTSGVHTFPAVLQSSGLYSLSSVVTVPSSSLGTQTYICNVNHKPSNTKVDKKVEPKSCDKTHTCPPCPAPEFEGGPSVFLFPPKPKDTLMISRTPEVTCVVVDVSHEDPEVKFNWYVDGVEVHNAKTKPREEQYNSTYRVVSVLTVLHQDWLNGKEYKCKVSNKALPASIEKTISKAKGQPREPQVYTLPPCRDELTKNQVSLWCLVKGFYPSDIAVEWESNGQPENNYKTTPPVLDSDGSFFLYSKLTVDKSRWQQGNVFSCSVMHEALHNHYTQKSLSLSPGK
light: DVVMTQTPLSLPVSLGDQASISCRSSQSLVHSNGNTYLRWYLQKPGQSPKVLIYKVSNRFSGVPDRFSGSGSGTDFTLKISRVEAEDLGVYFCSQSTHVPWTFGGGTKLEIKRTVAAPSVFIFPPSDEQLKSGTASVVCLLNNFYPREAKVQWKVDNALQSGNSQESVTEQDSKDSTYSLSSTLTLSKADYEKHKVYACEVTHQGLSSPVTKSFNRGEC
notes: Comparative: 4420 Fab arm and anti-CD3 scFv (CD3 antibody 1 VH/VL)-Fc fusion peptide
As to B6, the concentration for a half-maximal effect (EC50) in the experiment with human CD3 is 197 nM; in the experiment with monkey CD3 it was 296 nM.

As usually defined, the EC50 is the concentration at which the effect is half-maximal.
